± gives the uncertainty stated by the source.

Our source for the amyloid nucleation score values is the supplement of paper PMC12042874.

This data set in a line: amyloid nucleation score (Sup35N fusion, yeast selection) (log enrichment); library NNK3; higher = more nucleation; inactive = no reads after selection. In short, it runs like this:
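Sup35N fusions to peptides of 20 random codons were expressed in psi-negative yeast, induced 24 hours with 100 μM copper sulfate, and grown 7 days at 30°C on medium lacking adenine and uracil. Input and output plasmid inserts were sequenced by Illumina. The nucleation score is the DiMSum log enrichment of output over input reads, centred on the mode score of non-aggregating sequences. Sequences with under 100 input reads were excluded.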

Regarding RRSRFTFSYIIRSLCASRTF, the amyloid nucleation score entry was “inactive”.
The entry for STPHAHIRSLFMSGYGILTN is “inactive”.
The entry for MGTRFVLGPVQNLCDIGSAW is “inactive”.
For the substance CWPESISVVYLQYCAGSMSL, the amyloid nucleation score entry is “inactive”.
The substance TLYCRYFG yielded an amyloid nucleation score of 1.01 ± 0.23.
On to YKNEMGTIPCRRVTSNCLSY, for which the amyloid nucleation score entry was “inactive”.
Under SMFRSRFLKVRDVSTTSQCA stands “inactive”; under QLDHGH, “inactive”.
The entry for SRPVVRVINYYELGHIKVMS is “inactive”; for DNISHLAFCFNMALWYSNQS it is 1.23 ± 0.14; for STNMFVCDGRTPTNYWLGIR it is 1.42 ± 0.14.
Turning to FVDLIRLCMCFVRMSQSLRT, the amyloid nucleation score result was “inactive”.
For the substance RKILVVFLSWFNFKVYSNSM, the amyloid nucleation score entry is “inactive”.
On to CLPSFRGFTTNIMGLIRSRV, for which the amyloid nucleation score result is “inactive”.
Under SGMLIVLRSWLDRDSICEGR stands “inactive”.
Under LPEMGFFSLVDNWLAVAFSK stands 1.46 ± 0.081; under SSPRSMASYQRSKIRWVSEF, “inactive”; under VMCMCCISVHSTLMFLDITN, 2.85 ± 0.063.
Under HMQTGDDRLMQAAYMHLEHI stands “inactive”.
On to YSSHVPSLHQLDQVSRRVQG, for which the amyloid nucleation score result was “inactive”.
Turning to IPYDSSLLNSSNVCYLI, the amyloid nucleation score entry was “inactive”.
The entry for MNLVSSIVNYCFGRWGWLVG is “inactive”; for SNDYCRGCVCLDSGMNVCVA it is “inactive”.
As for VRLYYSKPRLKRGDSCVEKY, the amyloid nucleation score result is “inactive”.
Under LWSSDVEFLYGCASSCDFMG stands “inactive”; under TCLWFLFIKRSSRDSEIWS, 0.209 ± 0.53.
Under MQFEINRRVGHRSPNAYLE stands “inactive”.
The entry for GIFCYQWWRTNPNESLAR is “inactive”.
As to KNEVIYHWLRRRVNSRRTFR, the amyloid nucleation score result is “inactive”.
In the case of SLMYKWKEGSQDGYCWAW, the amyloid nucleation score was 0.824 ± 0.28.
For FKQIVKTSFNLCFFIRCKRT, the amyloid nucleation score result was “inactive”.
For the substance REGSDHRFMICETFYFE, the amyloid nucleation score entry is “inactive”.
For the substance CRAVND, the amyloid nucleation score entry was “inactive”.
The entry for RYAHRSKRNTSWHVYMFKVV is “inactive”.
With HGCWKQPDQVVLLWSHRFFR, the amyloid nucleation score entry was “inactive”.
Under TMIFMLVI stands “inactive”; under DTQQENCRTRGVRRGPRFCG, “inactive”.
QNGDKHYG: the amyloid nucleation score result was “inactive”.
With CFCRMNIGGHCGVRRKLKV, the amyloid nucleation score entry is “inactive”.
Under NDGPKVARMGSVR stands “inactive”; under SVVDRGASRFKRTVNVSNKA, “inactive”.
For MFNILADKGSRARSERASL, the amyloid nucleation score entry was “inactive”.
For the substance LEHCLCGLKYPDE, the amyloid nucleation score result was “inactive”.
ITSCCFVTLISVMSYGPCFG showed an amyloid nucleation score of 2.45 ± 0.089.
Turning to CCGEHRVGQWV, the amyloid nucleation score turned out to be 0.157 ± 0.27.
Under ATDKV stands “inactive”; under VDYKLFNFDGVCITTVFVHY, 2.24 ± 0.095; under GPPAEASHKLWPASPRDRCP, “inactive”.
On to WPFRKKYGIVEIRDEMYAG, for which the amyloid nucleation score result is “inactive”.
In the case of DYLPFHLMERDKVALAPWWA, the amyloid nucleation score entry was “inactive”.
Under NTWISMVCLLLLSDSNHTVV stands 1.84 ± 0.082; under EPCSLPTSGPMGMVGNIKSG, “inactive”.
As to TLWMGF, the amyloid nucleation score result was “inactive”.
Under TNTNTCL stands “inactive”; under VRGNYRNSFACRVLNHDQFW, “inactive”; under LVINL, “inactive”.
The entry for LYRLPRGYIRGGLLMLSS is “inactive”; for LNNFMWKHVMGYPYVAWLAF it is “inactive”; for KVLSYRETVPRLICLIHSRP it is “inactive”.
Under LSLWRWSVHS stands “inactive”; under NWIRS, “inactive”.
In the case of HTYLFRSMS, the amyloid nucleation score result is “inactive”.
The entry for TMAEGL is “inactive”; for ERALIDSHPGTWLRRMTVNR it is “inactive”; for CNVGPVSLFRFMGPLNYRDE it is “inactive”.
The entry for FLQAAYSGSRVAKCVSESSK is “inactive”.
LAFYNQHWNFSMRSGMQGFK returned an amyloid nucleation score of 1.05 ± 0.23.
Under SVSVLV stands “inactive”; under ILNMAVGALWGLMIWSVMLF, “inactive”.
The entry for IIMLTFQVNVTFASVWRTRS is “inactive”; for YNVRSFLTKVEWTYYFS it is 0.391 ± 0.16.
The entry for IKLVDLPCSLVNTGSTVNRE is “inactive”; for MKLHTPIEMLEGTHIGHVCG it is “inactive”.
Regarding IMKFDSRAYNGYMQMIRPGV, the amyloid nucleation score entry is “inactive”.
For the substance RPGTCNLLVDGHLSWFQSAT, the amyloid nucleation score is -0.288 ± 1.
Take HDRTVSLQYRVNTRVRLASW: the amyloid nucleation score result was “inactive”.
As to YKVILTCSKC, the amyloid nucleation score result was “inactive”.
As to LFADWQG, the amyloid nucleation score entry is “inactive”.
Under LERYRFKRNMSVIELHNKVM stands “inactive”; under TIQCMCFCSNRVLTIIVQLS, -0.61 ± 0.75.
Take THMATNLAGMYREAHGSGGI: the amyloid nucleation score entry is “inactive”.
On to NTVSHMY, for which the amyloid nucleation score entry was “inactive”.
Regarding DCIRIYQWASLSL, the amyloid nucleation score entry is “inactive”.
The entry for MLCFKPKPVRARNPGNILSH is “inactive”; for QWRIRSWHMYDSSLARGLD it is “inactive”; for GVLSYNMIHT it is “inactive”.
For the substance PNALDRIYSG, the amyloid nucleation score entry was “inactive”.
Under FYIYWLFPIIVSFDYVFSGL stands “inactive”; under VARIIYQRIW, “inactive”; under LVFSRACTLVDTIE, “inactive”.
For the substance CYGALVVQTAYME, the amyloid nucleation score entry was “inactive”.
Under SFFTWYTSFSKDDLWSGLTV stands “inactive”; under RRSTYLIVFVG, “inactive”.
For GVADGGMPRNSSWRLSGVVR, the amyloid nucleation score entry is “inactive”.
The figure for LGYTQSVTVMRLMSQYKKAG is -0.334 ± 0.55; for NVFLSRFMVMRKMVWFTEF it is “inactive”.
As for SSGSPFNCWHSLHCSSRPFK, the amyloid nucleation score entry is “inactive”.
The substance ANKSTIGLFMRLPYCPGSN registered an amyloid nucleation score of -0.148 ± 0.96.
For the substance SRTSYYMPTIPCMMPMN, the amyloid nucleation score entry is “inactive”.
The entry for NFRVLVVNVKTFLMVVKVMF is “inactive”; for GVCKWFCESIDMTLRAVWAN it is “inactive”.
On to GVRHRLAVFQYMFTHVLWTM, for which the amyloid nucleation score result is “inactive”.
The entry for TTSLMSKVFY is “inactive”; for IYCVNSSAFVLEPF it is “inactive”; for SFLIDPTHGLYSLRFFIFCW it is “inactive”.
The entry for EDLVISNIFGWFGCLGLVYT is “inactive”; for FGSSMYRMKPVDC it is “inactive”; for YYFRRVWTCPLIAQIIKSDL it is 0.39 ± 0.71.
The entry for EFTNMYLPNSQQEVRFLQGL is “inactive”; for DWLDLSGVSCH it is -0.11 ± 0.62.
Take LWHGIICFCFLAYSWGKSAV: the amyloid nucleation score entry is “inactive”.
Under SDDKGVWLIMAGLCGIWSMY stands 2.33 ± 0.082; under SSFLWTVWGFSNNPCCSSVA, 2.46 ± 0.051.
The entry for LDVQATIAFCVVVYASLYKR is “inactive”.
Under HNNIAFSLVVNDESVLWCFN stands 1.97 ± 0.053.
Take ICWMRDTTVVGFRWV: the amyloid nucleation score was -0.07 ± 0.96.
The entry for VMCLVSRPPQWSVLDVSTIM is “inactive”.
As to FLIDDMYWSVMDTWI, the amyloid nucleation score entry is “inactive”.
Under YRLSLRH stands “inactive”.
The entry for VFGKCLCTNCLEEVCIRFDL is “inactive”; for TWTMDSSLWMLWAVQVVEGR it is “inactive”; for YRYFGTAAMKRICHRNSIVS it is “inactive”.
The entry for RKNLWLVTTGNSARDMLSKM is “inactive”.
Take VDIGYQMQGFLGICSDY: the amyloid nucleation score entry is “inactive”.
NVWLNGWIVGMGYNNWHILW returned an amyloid nucleation score of 1.93 ± 0.072.
Turning to LLFMYSDMTYTWCIFYGELW, the amyloid nucleation score result was “inactive”.
Under AFKECARRR stands “inactive”.
The figure for VFGGNVIKSYVKITFQPGFD is 2.22 ± 0.061; for HGMGYRAIFIFNLISQPRLE it is 2.52 ± 0.078; for FSWRCCFHKNNDCAKTILMF it is “inactive”.
